The values that follow come from paper PMC5309799.

pKd: −log10 of the molar value.

For assay [1], the target named is RH5Nt (F1-K116), biotinylated SPR ligand (P. falciparum (3D7 strain)). The experiment in a line: SPR. On the technique in general: Surface plasmon resonance follows binding to a sensor surface in real time, without labels.
In assay [2] the target is Synthetic RH5Nt peptide (F1-K116 with an additional C-terminal cysteine) (P. falciparum). In words: SPR.
In another assay the target is Basigin (Homo sapiens) (UniProt P35613). To be noted: cited from earlier work.
In assay [3] the target is Basigin ectodomain, AVEXIS bait or prey and biotinylated SPR ligand (human) (UniProt P35613). The experiment in a line: SPR.
Assay [4] has as its target P113 Y1-K197, biotinylated SPR ligand (P. falciparum (3D7 strain)). In words: SPR.
The target in assay [5] is P113 Y1-N653, biotinylated SPR ligand (P. falciparum (3D7 strain)). The experiment in a line: SPR.
Assay [6] addresses P113 entire ectodomain, AVEXIS bait or prey and biotinylated SPR ligand (P. falciparum (3D7 strain)). In words: SPR.
Assay [7] addresses purified P113 entire ectodomain (P113 EE) (P. falciparum (3D7 strain)). In words: native gel or EMSA; fractions of the gel filtration peak resolved by native PAGE (Bis-Tris, 150 V) against denaturing SDS-PAGE. On the technique in general: In EMSA bound probe runs differently from free probe, usually more slowly.
Assay [8] addresses P113 entire ectodomain, AVEXIS bait and prey forms (P. falciparum (3D7 strain)). In words: SPR.

One may read the pKd as the negative decadic logarithm of the Kd, by convention in mol/L. One may read the koff as the rate constant with which the complex falls apart. The term kon denotes the second-order rate constant of association. Broadly, the stoichiometry N is the number of molecules, sites or subunits per partner or assembly.

In assay [1], “P113 Y1-N653, purified SPR analyte (domain or fragment)” showed a pKd of 5.30, a koff of 1.54 s⁻¹ and an on-rate (kon) of 304000 M⁻¹ s⁻¹. In [2], this substance gave a pKd of 5.24, an off-rate (koff) of 1.24 s⁻¹ and an on-rate constant (kon) of 216000 M⁻¹ s⁻¹.
For the substance RH5 (from UniProt Q8IFM5), the negative-log Kd (pKd) in the assay with Basigin (Homo sapiens) is 6.00.
With “RH5Ct (major processed form of RH5), purified monomeric SPR analyte (domain or fragment)”, in assay [3], the pKd is 6.05, the off-rate constant (koff) stood at 0.293 s⁻¹ and the kon was 342000 M⁻¹ s⁻¹.
Regarding “RH5FL, purified monomeric SPR analyte (from UniProt Q8IFM5 25-526) (natural protein)”, the negative logarithm of the Kd (pKd) in [3] is 5.89; in assay [4] it was 5.96; in [5] it was 6.30.
In assay [6], “RH5Nt (N-terminal region of RH5, F1-K116), purified monomeric SPR analyte (domain or fragment)” gave a negative-log Kd (pKd) of 5.57, a dissociation rate constant (koff) of 0.793 s⁻¹ and a kon of 300000 M⁻¹ s⁻¹.
For the substance “purified P113 entire ectodomain (P113 EE) (natural protein)”, the stoichiometry N in assay [7] amounted to 4.
Consider “purified monomeric RH5Nt (F1-K116) (domain or fragment)”, for which the negative-log Kd (pKd) in assay [8] was 5.52.
In the case of “purified monomeric full-length RH5 (RH5FL) (from UniProt Q8IFM5 25-526) (natural protein)”, the negative logarithm of the Kd (pKd) in assay [8] is 6.52.
